# Numbering of substitutions follows the chain as printed. Names and notes keep the numbering of the source.
# B1: P2-1B1 (full IgG1) (antibody, V domains shown)
# VH: QVQLVQSGAEVKRPGSSVKVSCKASGGTFSSYAISWVRQAPGQGPEWMGGIIPIFGTPHNAQKFQGRVTITADESTSTAYMELSSLRSEDTAMYYCSRTKGDILTGYTDYYFDSWGQGTLVTVSS
# VL: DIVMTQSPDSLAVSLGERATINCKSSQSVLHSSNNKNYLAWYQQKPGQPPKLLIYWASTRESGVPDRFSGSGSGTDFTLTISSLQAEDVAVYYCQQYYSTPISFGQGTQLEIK
# B2: P5-1C8 (full IgG1) (antibody, V domains shown)
# VH: EVQLVESGGGLIQPGGSLRLSCAASEIIVSRNYMNWVRQAPGKGLEWVSVIYSGGSTFYADSVKGRFTISRDNSENTLYLQMNSLRAEDTAVYYCARGYGDYYFDYWGRGTLVTVSS
# VL: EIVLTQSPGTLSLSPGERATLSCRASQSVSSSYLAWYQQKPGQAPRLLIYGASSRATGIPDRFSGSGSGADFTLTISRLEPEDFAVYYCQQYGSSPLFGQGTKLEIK
# B3: P5-1H1 (full IgG1) (antibody, V domains shown)
# VH: EVQLVESGGGLIQPGGSLRLSCAASGITVSSNYMTWVRQPPGKGLEWVSVIYSGGSTFYADPVKGRFTISRDNSRNTLYLQMNSLRAEDTAVYYCARDLQVYGMDVWGQGTTVTVSS
# VL: DIQLTQSPSFLSASVGDRVTITCRASQGISNFLAWYQQKPGKAPKLLIYAASTLQGGVPSTFSGSGSGTEFTLTISSLQPEDFATYYCQHLNDYPLFGGGTRVEIK
# B4: P5-1H1 Fab (Fab, V domains shown)
# VH: B3 VH
# VL: B3 VL
# B5: P195-1B8 (antibody, V domains shown)
# VH: QVTLRESGPALVKPTQTLTLTCTFSGFSLSTSGMCVSWIRQPPGKALEWLALIDWDDDKYYSTSLKTRLTISKDTSKNQVVLTMTNMDPVDTATYYCARSWVGGGVDVWGQGTTVTVSS
# VL: not shown
# B6: P2-1G9 (antibody, V domains shown)
# VH: EVQLVESGGGLVQPGGSLRLSCAASGFTFSTYWMSWVRQAPGKGLEWVANIKQDGSDKYYVDSVKGRFTISRDNAKNSLYLQMNSLRVEDTAVYYCARDLGILWFGELPNFDPWGQGTLVTVSS
# VL: DIQMTQSPSSLSASVGDRVTITCRASQGISNSLAWYQQKPGKAPKLLLYAASTLESGVPSRFSGSGSGTDYTLTISSLQPEDFATYYCQQYYSPPPRTFGQGTKVEIK
# B7: P2S-2E8 (antibody, V domains shown)
# VH: B6 VH with T31S, D57E, V88A
# VL: B6 VL with T53R, P94T
# B8: P5-2B9 (antibody, V domains shown)
# VH: EVQLVQSGAEVKKPGESLKISCKGSGHSFTSFWIGWVRQMPGKGLEWMGIIYPGDSETRYSPSFQGQVTISVDKSIFTAYLQWSSLKASDSAMYYCARISGKGVGWFDPWGQGTLVTVSS
# VL: SYVLTQPPSVSVAPGQTARITCGGNNIGSKSVHWYQQKPGQAPVLVIYYDSDRPSGIPERFSGSNSGNTATLTISRVEAGDEADYYCQVWHSSSDHVVFGGGTKLTVL
# B9: P186-2C12 (antibody, V domains shown)
# VH: EVQLVESGGGVVRPGGSLRLSCAASGFTFDDYGMSWVRQAPGKGLEWVSGIYWNGGITGYADSLKGRFTISRDNAKNSLYLQMNSLRAEDTALYHCARDRGSGYYIFDYWGQGTLVTVSS
# VL: not shown
# B10: P186-2A8 (antibody, V domains shown)
# VH: EVQLVESGGGLVQPGRSLRLSCAASGFTFDDYAMHWVRQAPGKGLEWVSGISWNSGSISYADSVKGRFTISRDNAKNSLYLQMNSLRAEDTALYYCAKALVGGHKYYYGMDVWGQGTTVTVSS
# VL: not shown
# B11: P10S-1G4 (antibody, V domains shown)
# VH: QVQLQESGPGLVKPSQTLSLTCTVSGDSISSGDYYWIWIRQHPGKGLEWIGYIYYSGSTYYNPSLKSRVTISVDTSKNQFSLKLSSVTAADTAVYYCARVEYCSGGSCRRHNWFDPWGQGTLVTVSS
# VL: QSVLTQPPSVSGAPGQRVTISCTGSSSNIGAGYDVHWYQQLPGTAPKLLIYGNSNRPSGVPDRFSGSKSGTSASLAITGLQAEDEADYYCQSYDSSLSGVVFGGGTKLTVL
# B12: P195-2B9 (antibody, V domains shown)
# VH: QVQLQESGPGLVKPSETLSLTCTVSGGSSSSHFWSWIRQPPGKGLEWIGYIYYGGNTNYNPSLKSRVTISVDTSKSQFSLKLSSVTAADTAVYYCARHHYYYDSSDFRLKAGYYFDYWGQGTLVAVSS
# VL: B11 VL with Y51F, G52D, S54N, N55D, G70D, S98I, G99S, V100W, V110L
# B13: P5S-1B11 (antibody, V domains shown)
# VH: QVQLVQSGAEVKKPGASVKLSCRASGYTFTSYFMHWVRQAPGQGLEWMGVINPGGGGTSYAQKFQGRVTMTRDTSTSTVYMELSSLRSEDTAVYYCARYYDSIDNFDYWGQGTLVTVSS
# VL: DIQMTQSPSSLSASVGDRVTITCRASQGIRNDLGWYQQKPGKAPKCLIYAASSLQSGVPSRFSGSRSGTEFTLTISSLQPEDFATYYCLQHNTYPQLTFGGGTKVEIK
# B14: P5S-2G8 (antibody, V domains shown)
# VH: QMQLVQSGAEVKKTGSSVKVSCKASGSTFTHRYLHWVRQAPGQALEWMGWITPFNGDTNYAQKFQDRVTITRDGSMSTVYMDLSSLRSEDTAMYYCAAGARWGDSYYYYGMDVWGQGTAVTVSS
# VL: QSALTQPPSASGSPGQSVTISCTGTSSDVGGYNYVSWYQQHPDKAPKLMIYEVSKRPSGVPDRFSGSKSGNTASLTVSGLQAEDEADYYCSSYAGNNNLVFGTGTKVTVL
# Biological target: T1, recombinant RBD protein of wild-type SARS-CoV-2 (ELISA antigen) (SARS-CoV-2 wild-type, UniProt P0DTC2)
# T1 construct: No catalogue number printed
# Assay: ELISA
# Details: one partner purified
row,Binder,binding result
1,B1,binds
2,B2,binds
3,B3,binds

# Biological target: T2, SARS-CoV-2 wild-type RBD (SARS-CoV-2 wild-type)
# T2 construct: also called WT-RBD
# Assay: crystal structure
# Details: both partners purified
row,Binder,binding result
1,B4,binds

# Biological target: SARS-CoV-2 RBD immobilised on the CM5 chip (SARS-CoV-2 wild-type (assumed))
# Assay: SPR
# Details: both partners purified
row,Binder,binding result
1,B1,binds
2,B2,binds
3,B3,binds

# Biological target: T1, recombinant RBD protein of wild-type …
# Assay: not given
# Details: not given
row,Binder,binding result
1,B5,binds
2,B6,binds
3,B7,binds
4,B8,binds
5,B9,binds
6,B10,binds
7,B11,binds
8,B12,binds
9,B13,binds
10,B14,binds

# Biological target: recombinant wild-type SARS-CoV-2 S trimer (ELISA antigen) (SARS-CoV-2 wild-type, UniProt P0DTC2)
# Assay: not given
# Details: not given
row,Binder,binding result
1,B5,binds
2,B6,binds
3,B7,binds
4,B8,binds
5,B9,binds
6,B10,binds
7,B11,binds
8,B12,binds
9,B13,binds
10,B14,binds

# Reference: publication PMC10063446 (Nature Immunology, 2023)
